{"source": "paper PMC5548392", "target": "RAB21 (UniProt P35282)", "test": "GST pull-down with purified proteins", "conditions": "reference: RPH3A incubated with PKN1 without ATP; sites S234,S271", "data": [{"substance": "RPH3A (Rabphilin 3A) (from UniProt P47708) RPH3A incubated with PKN1 and ATP", "values": [{"measurement": "binding against the reference", "value": "stronger"}]}]}
